Results from patent US20150141489.
Residue numbers refer to the chain shown, from its start.

B1: T7-tagged human Mnk2a (protein)
chain: MVQKKPAELQGFHRSFKGQNPFELAFSLDQPDHGDSDFGLQCSARPDMPASQPIDIPDAKKRGKKKKRGRATDSFSGRFEDVYQLQEDVLGEGAHARVQTCINLITSQEYAVKIIEKQPGHIRSRVFREVEMLYQCQGHRNVLELIEFFEEEDRFYLVFEKMRGGSILSHIHKRRHFNELEASVVVQDVASALDFLHNKGIAHRDLKPENILCEHPNQVSPVKICDFDLGSGIKLNGDCSPISTPELLTPCGSAEYMAPEVVEAFSEEASIYDKRCDLWSLGVILYILLSGYPPFVGRCGSDCGWDRGEACPACQNMLFESIQEGKYEFPDKDWAHISCAAKDLISKLLVRDAKQRLSAAQVLQHPWVQGCAPENTLPTPMVLQRNSCAKDLTSFAAEAIAMNRQLAQHDEDLAEEEAAGQGQPVLVRATSRCLQLSPPSQSKLAQRRQRASLSSAPVVLVGDHA
B2: Mnk2a-kinase dead (Mnk2aKD) (protein)
chain: B1 chain with K113A

Molecular target: endogenous p38α, Q16539
Sequence (Q16539 2-360): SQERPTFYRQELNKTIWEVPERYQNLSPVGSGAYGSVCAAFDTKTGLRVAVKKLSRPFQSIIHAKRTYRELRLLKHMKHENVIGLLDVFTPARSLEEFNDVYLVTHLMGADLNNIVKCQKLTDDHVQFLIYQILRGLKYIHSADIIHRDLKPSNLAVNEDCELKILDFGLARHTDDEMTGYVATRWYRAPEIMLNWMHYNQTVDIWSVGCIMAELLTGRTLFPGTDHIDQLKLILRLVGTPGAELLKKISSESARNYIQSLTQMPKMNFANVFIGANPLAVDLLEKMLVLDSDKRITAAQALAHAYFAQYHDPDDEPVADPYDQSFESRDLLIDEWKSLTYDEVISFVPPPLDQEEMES

Protein	p38-MAPK phosphorylation (Western blot)	p38 or MK2 phosphorylation (Western blot)
B1	only cells expressing Mnk2a showed increased p38-MAPK phosphorylation, indicating that p38-MAPK is activated	–
B2	–	it did not cause activation of p38, as measured by p38 or MK2 phosphorylation
